Results: paper PMC5435347

Target: YFP-MKT1 (Trypanosoma brucei) (UniProt Q587E3)
Experiment: co-IP; extracts of bloodstream-form trypanosomes immunoprecipitated with anti-GFP (GBP beads) for YFP-MKT1, Western blot for V5 or myc; 100-150 mM NaCl, 2 h at 4°C; with or without RNase; control cells without YFP-MKT1

Sequence of UniProt Q587E3 (Q587E3 whole entry): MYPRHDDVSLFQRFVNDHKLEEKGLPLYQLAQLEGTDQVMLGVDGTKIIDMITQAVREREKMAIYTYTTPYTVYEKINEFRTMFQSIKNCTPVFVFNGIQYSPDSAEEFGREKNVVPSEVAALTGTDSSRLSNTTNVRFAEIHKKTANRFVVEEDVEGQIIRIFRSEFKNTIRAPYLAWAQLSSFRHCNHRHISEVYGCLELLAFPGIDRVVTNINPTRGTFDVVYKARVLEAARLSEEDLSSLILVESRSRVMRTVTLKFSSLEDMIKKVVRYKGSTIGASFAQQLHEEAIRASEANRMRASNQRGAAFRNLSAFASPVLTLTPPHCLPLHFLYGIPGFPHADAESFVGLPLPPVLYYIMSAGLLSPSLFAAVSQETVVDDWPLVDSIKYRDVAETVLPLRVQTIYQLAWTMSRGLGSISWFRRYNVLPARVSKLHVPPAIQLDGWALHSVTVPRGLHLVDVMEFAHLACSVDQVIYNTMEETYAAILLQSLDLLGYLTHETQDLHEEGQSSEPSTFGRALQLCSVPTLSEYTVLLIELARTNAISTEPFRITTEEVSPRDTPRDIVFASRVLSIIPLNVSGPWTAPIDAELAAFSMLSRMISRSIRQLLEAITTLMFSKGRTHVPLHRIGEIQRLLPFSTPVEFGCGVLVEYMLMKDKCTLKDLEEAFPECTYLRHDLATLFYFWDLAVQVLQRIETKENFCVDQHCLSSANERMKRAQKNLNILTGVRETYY

Substance | proportion pulled down [%]
V5-ZC3H32 (natural protein) | < 1
ZC3H32-myc (natural protein) | < 1
